These results are taken from publication PMC9508239 (Nature Communications, 2022).

The data set deals with the molecule itself. Put plainly: cryo-EM structure; purified MmIR dimer fraction (20 mM Hepes-Na pH 7.4, 150 mM NaCl, 0.03% DDM) mixed with synthesized S597-component-2 (S597-N20) at 1:4 (m:m), incubated half an hour, 4 °C, concentrated to 6 mg/ml.

B1: full-length mouse insulin receptor, short isoform, with kinase-dead mutation D1122N and mutation Y962F (receptor, UniProt P15208 28-1372, looked up)
chain: HLYPGEVCPGMDIRNNLTRLHELENCSVIEGHLQILLMFKTRPEDFRDLSFPKLIMITDYLLLFRVYGLESLKDLFPNLTVIRGSRLFFNYALVIFEMVHLKELGLYNLMNITRGSVRIEKNNELCYLATIDWSRILDSVEDNYIVLNKDDNEECGDVCPGTAKGKTNCPATVINGQFVERCWTHSHCQKVCPTICKSHGCTAEGLCCHKECLGNCSEPDDPTKCVACRNFYLDGQCVETCPPPYYHFQDWRCVNFSFCQDLHFKCRNSRKPGCHQYVIHNNKCIPECPSGYTMNSSNLMCTPCLGPCPKVCQILEGEKTIDSVTSAQELRGCTVINGSLIINIRGGNNLAAELEANLGLIEEISGFLKIRRSYALVSLSFFRKLHLIRGETLEIGNYSFYALDNQNLRQLWDWSKHNLTITQGKLFFHYNPKLCLSEIHKMEEVSGTKGRQERNDIALKTNGDQASCENELLKFSFIRTSFDKILLRWEPYWPPDFRDLLGFMLFYKEAPYQNVTEFDGQDACGSNSWTVVDIDPPQRSNDPKSQTPSHPGWLMRGLKPWTQYAIFVKTLVTFSDERRTYGAKSDIIYVQTDATNPSVPLDPISVSNSSSQIILKWKPPSDPNGNITHYLVYWERQAEDSELFELDYCLKGLKLPSRTWSPPFESDDSQKHNQSEYDDSASECCSCPKTDSQILKELEESSFRKTFEDYLHNVVFVPRPSRKRRSLEEVGNVTATTLTLPDFPNVSSTIVPTSQEEHRPFEKVVNKESLVISGLRHFTGYRIELQACNQDSPDERCSVAAYVSARTMPEAKADDIVGPVTHEIFENNVVHLMWQEPKEPNGLIVLYEVSYRRYGDEELHLCVSRKHFALERGCRLRGLSPGNYSVRVRATSLAGNGSWTEPTYFYVTDYLDVPSNIAKIIIGPLIFVFLFSVVIGSIYLFLRKRQPDGPMGPLYASSNPEFLSASDVFPSSVYVPDEWEVPREKITLLRELGQGSFGMVYEGNAKDIIKGEAETRVAVKTVNESASLRERIEFLNEASVMKGFTCHHVVRLLGVVSKGQPTLVVMELMAHGDLKSHLRSLRPDAENNPGRPPPTLQEMIQMTAEIADGMAYLNAKKFVHRNLAARNCMVAHDFTVKIGDFGMTRDIYETDYYRKGGKGLLPVRWMSPESLKDGVFTASSDMWSFGVVLWEITSLAEQPYQGLSNEQVLKFVMDGGYLDPPDNCPERLTDLMRMCWQFNPKMRPTFLEIVNLLKDDLHPSFPEVSFFYSEENKAPESEELEMEFEDMENVPLDRSSHCQREEAGGREGGSSLSIKRTYDEHIPYTHMNGGKKNGRVLTLPRSNPS
notes: insulin receptor, mouse, short isoform (A isoform), full length; Disulfide-linked dimer; The proreceptor is written as one chain; An HRV-3C site lay between the receptor and Tsi3; also called MmIR; IR; source: FreeStyle 293-F cells (BacMam), purified (DDM extraction, Tse3 resin, HRV-3C elution, Superose 6; dimer fraction); not shown: Tsi3, C-terminal, cleaved
As to B1, the binding result is reported as “binds”.
